Laboratory results taken from patent publication US7303752B2, “Hookworm vaccine” (The George Washington University, priority 2001, dated 2007).

Test system: A. ceylanicum
Experiment: Hamster vaccine trial Ham V-IV with Quil A, oral challenge with 100 A. ceylanicum L3
Type: in vivo, Syrian hamster
Settings: for Adult Hookworms, Mean: 10 hamsters per group, Quil A control 48.9; for Spleen weights, Median: Quil A control 0.45; for Spleen weights, Mean: Quil A control 0.47; for Adult Hookworms, Median: Quil A control 53.0; for Percent reduction (EPG) relative to Quil A / Percentage Hb Increase Relative to control (QuilA) / Percentage Reduction (adult hookworms) Relative to Quil A: hamster, in vivo; for EPG Mean ± SD: hookworm eggs per gram, two cages per group; for Body Weight % Reduction, Median / Body Weight % Reduction, Mean / Hb % change, Mean / Hb % change, Median: necropsy relative to time of infection; for Body Weight % Reduction, Median: Quil A control 7.8; for Body Weight % Reduction, Mean: Quil A control 7.9; for Hb % change, Mean / Hb % change, Median: minus = decrease; for Hb % change, Mean: Quil A −29.7; for Hb % change, Median: Quil A −32.5
Experimental: Brief Outline of Study Sections: Purpose bred Syrian hamsters are randomized into eight groups. Seven groups will receive candidate vaccines: ASP-1, ASP-2, MTP, and Irradiated larvae. One group receives only the adjuvant (Quil A) as experimental control. Each animal's specific antibody response is evaluated by direct ELISA using serum taken prior to the infective challenge. […] Quantitative ova counts, used to evaluate worm burden, are made from fecal samples collected twice after larval challenge. Also, hemoglobin levels will be tested to detect anemia caused by the blood loss during adult hookworm infection. The final report will evaluate the data and provide conclusions regarding each vaccine's effectiveness both in terms of worm burden and blood loss.
Test and Control Identification: The antigens are ASP-1, ASP-2, and MTP. The antigen-adjuvant combinations will be ASP-1+Quil A, ASP-2+Quil A, MTP+Quil A, ASP-1+ASP-2+Quil A, ASP-2+MTP+Quil A and ASP-1+MTP+Quil A. One group, which receives irradiated L3 serve as the positive control. The negative control group will receive only Quil A. Details about the antigen and the adjuvants will be included in the study records when they become available.
The test articles are diluted to provide a dose of 0.025 mg of antigen in 200 ul of antigen-adjuvant mixture per animal per injection. All injections will be performed intramuscularly (i.m). The prescribed volume dose information is recorded by Dr. Ghosh. Fresh preparation of antigens will be made the day of injection.
Administration of Test and Control Articles: The vaccines and adjuvant are administered intramuscularly (IM) three (3) times beginning when the hamsters are 28±2 days old. The vaccines are boosted at 21 days (3 weeks) intervals.
Challenge Infection: Ancylostoma ceylanicum larvae are cultured from the eggs collected in the feces of infected hamsters by qualified technicians in the Dr. Hotez lab. All hookworms in the infective challenge are approximately equal age (10±5 days). The species identity of the infective larva dose is validated, using PCR DNA amplification and specific oligonucleotide primers. All hamsters are infected by orally with the same dose of 100+/−10 3rd stage larvae of A. celyanicumfs. Larval challenge occurs on the same day for all hamsters (at age 82±2 days). Clinical Observations: The hamsters are observed daily and are weighed at least every 7 days post-challenge. Hamsters that develop signs of moderate to severe anemia, or develop a loss of body weight greater than 15% are observed more frequently. Prior to larvae infection and at least one time every 7-10 days, blood samples are collected from all hamsters. Blood withdrawal should be approximately equal in amount from all hamsters and at this time, the stool will be checked for blood.
A pre-vaccination blood sample will be examined for Hemoglobin; a sample of serum will be frozen. A hemoglobin test is performed 6-10 days and 12-18 days post-challenge. Samples of serum will be collected from each hamster; pre-immune, after 2 boosts, and after larval challenge. These samples will be labeled with unique identifiers (nature of the specimen, study-hamster number and collection date) and frozen for possible future analysis.
Quantitative Egg Counts (QEC): One week following parasite dosing, fecal examination for ova begins and will be repeated once a week until the study is terminated. The ova count method will be performed according to the SOP, which is a modification of the McMaster technique (Veterinary Clinical Pathology, 6th ed., 1994, page 9-10). The test will be performed the same way each time in order to quantitate the ova count. Fecal specimens from the hamsters will be identified by the hamster study number and the unique hamster identification number. The ova are counted in a McMaster chamber under a binocular microscope and recorded. […]

Molecule | Adult Hookworms, Mean | Spleen weights, Median | Spleen weights, Mean | Adult Hookworms, Median | Percent reduction (EPG) relative to Quil A [%] | Percentage Hb Increase Relative to control (QuilA) [%] | Percentage Reduction (adult hookworms) Relative to Quil A [%] | EPG Mean ± SD | Body Weight % Reduction, Median [%] | Body Weight % Reduction, Mean [%] | Hb % change, Mean [%] | Hb % change, Median [%]
Ay-ASP-1: A. ceylanicum secreted protein 1, SEQ ID NO: 56; Pichia pastoris expressed (protein, listed as Ancylostoma ceylanicum) FSPVVVISVVLTVAFCDASPVKASFGCSNSGITDSDRQAFLDFHNNARRRVAQGVEDNKSGKLNPAKNMYKLDWDCEMEQKLQDAIQSCPGGFAGIQGVAQNIISWSGSGGFPNPSEKINSTLASWWGGAKNNGVASDNKYTGGGLYAFSNMVFSETTKLGCAYKVCGTKLTLSCYNGIGYMTGAPMWETGQACKAGADCTTFKNSGCEDGLCTKGADVPETNQQCPSNTGMTDSVRDTFLSLHNEFRSSVARGLEPDALGGNAPKASKMLKMVYDCEVEASAIRHGNKCVYQHSHGDERPGLGENIYKTSIVKFEKNKAAKQASQLWWNELKEFGVGPSNMLTDAWNRPNMQIGHYTQMAWESTYKLGCAVIFCNDFTFGVCQYGPGGNYMNHLIYTIGQPCSECEATATCSVTEGLCSAP | 30.9 | 0.48 (0.48) ± 0.10 gr | 0.48 (0.48) ± 0.10 gr | 36.0 | 59.0 | 32.7 | 36.8 | 912.5 ± 17.7 | 4.4 | 3.4 | −13.3 | −20.0
Ay-MTP-1: A. ceylanicum astacin protease antigen, SEQ ID NO: 60 (protein, listed as Ancylostoma ceylanicum) MRVFLLVLLLAICASAGFFDTKLGEKIKKTLGKIKAALNGTLLMKIREKFIALREKIKAKLKLSPARKALLGEIMKHIIKIKKDKIQEKGDSIEEINSKSAIGELLYQGDIVLTNKQAQEIVDIEGDENDRGKRQAFRDRNYPRTLWSKGVYYYFHGNATPEVRSVFTKGARLWMKDTCIDFFESNSAPDRIRVFKEQGCWSYVGRIGGQQDLSLGKGCESVGTAAHEIGHAIGFYHTHSRHDRDNFITFNAQNVKPDWLDQFTKQTPATNENYGITYDYGSIMHYGANSASANGQPSMVPFDPKYVETLGSPIISFYELLMINKPYECTKNCDPNTSAQCKMGGFPHPRDCGRCICPSGYGGQLCDQKPSGCGSILQATAQYQNLHDKRGNEAAGQRPREDMDFCYYWITAPQGSRIEIKIADLSRGAAVDGCQYWGVEIKTHADQRLTGYRFCAPEDVGRTLVSNSNIVPIITYNFYATTVDIQYRIVGGNVGGPRPQPQPNSNCVDNEQCATLIRTKNFCQSRSFTESVKRGLCPKACGFCR | 35.3 | 0.45 gr | 0.42 gr | 40.0 | 42.7 | 59.9 | 27.8 | 1275.0 ± 777.8 | 5.4 | 4.0 | −3.5 | −11.9
Ay-ASP-2: A. ceylanicum secreted protein 2, SEQ ID NO: 58; Pichia pastoris expressed (protein, listed as Ancylostoma ceylanicum) VLVPLLVLLAVSVDANSVRCGNNGMTDEARQKFLDMHNGYRSQVAKGQAKDALSGNAPKAAKMKKMVYDCGVESTAMQNAKKCVFTHSHMKGLGENIWMTTAREMDKVKSAEQASQGWFSELAEYGVGPENKLTMQLWNRPNTQIGHYTQMVWQDTYKLGCYVEWCSSMTYGVCQYSPQGNMMNSIIYEKGNPCTQDSDCGSNARCTADKALCIVHG | 33.2 | 0.47 gr | 0.44 gr | 39.5 | 47.2 | 55.2 | 32.1 | 1175.0 ± 176.7 | 4.9 | 4.2 | −9.2 | −13.3
